In paper PMC8202325:
“And” between values parts separate entries of the source, which are not always exact repeats. Equal values may be shown once.

Target: His::PfPLSCR (recombinant full-length Plasmodium falciparum phospholipid scramblase with an N-terminal hexa-histidine affinity tag) (P. falciparum)
Experiment: native gel or EMSA; blue native PAGE (NativePAGE Novex Bis-Tris, G250 additive) of eluted fractions of the main SEC peak; protein purified in 250 mM NaCl, 0.5 mM CaCl2, 1 mM TCEP, 0.1 % FC-12, 25 mM HEPES pH 7.5

stoichiometry N: 2 and 4
Substance: His::PfPLSCR (recombinant full-length Plasmodium falciparum phospholipid scramblase with an N-terminal hexa-histidine affinity tag) (natural protein)
